1 molecule from patent publication US20220362357A1, “Synergistic Combinations of Amino Acid Depletion Agent Sensitizers (AADAS) and Amino Acid Depletion Agents (AADA), and Therapeutic Methods of Use Thereof” (STICHTING RADBOUD UNIVERSITAIR MEDISCH CENTRUM, priority 2018, published 2022) can be followed below.

In this experiment the test system is Nalm6, Sem and Reh cells. The experiment is described as follows: ASNase and ibrutinib 7 day treatment of ALL cell lines: SubG1, PARP cleavage, amine staining, colony assay. Particulars: 7 days; 1 IU/ml ASNase, ibrutinib 1 or 10 μM; FIGS. 4D, 4E, 4F & 4H. It counts as cell-based, human. How it is done:
BTK inhibition. […] Cell viability was then measured by cell cycle distribution, (FIGS. 4C & 4D), and by blotting for the apoptosis marker PARP and calculating the ratio between cleaved and uncleaved PARP protein or (FIG. 4E) by amine staining (FIG. 4F).

B1: ASNase: native E. coli ASNase (NCBI WP_000394140.1), used in the in vitro studies (protein, UniProt P00805 23-348, looked up)
L-asparaginase 2: LPNITILATGGTIAGGGDSATKSNYTVGKVGVENLVNAVPQLKDIANVKGEQVVNIGSQDMNDNVWLTLAKKINTDCDKTDGFVITHGTDTMEETAYFLDLTVKCDKPVVMVGAMRPSTSMSADGPFNLYNAVVTAADKASANRGVLVVMNDTVLDGRDVTKTNTTDVATFKSVNYGPLGYIHNGKIDYQRTPARKHTSDTPFDVSKLNELPKVGIVYNYANASDLPAKALVDAGYDGIVSAGVGNGNLYKSVFDTLATAAKTGTAVVRSSRVPTGATTQDAEVDDAKYGFVASGTLNPQKARVLLQLALTQTKDPQQIQQIFNQY
In the case of B1, the apoptotic killing efficacy result is “relatively small effect”.
